For the series the following is noted: Bombyx mori, whole UniProt chain shown; for Tm / unfolding enthalpy (calorimetric) / unfolding enthalpy (van 't Hoff): Thermal, DSC.
The mark [1] stands for this setting: pH 3.5, sodium acetate buffer 50 mM.
Where [2] appears, read: pH 4, sodium acetate buffer 50 mM.
The mark [3] stands for this setting: pH 4.5, sodium acetate buffer 50 mM.
Setting [4] is: pH 5, sodium acetate buffer 50 mM.
[5] abbreviates: pH 8, 25 °C, GdnHCl, CD, Tris-HCl 50 mM.

B1: Lysozyme wild type, P48816 (protein)
chain: MQKLIIFALVVLCVGSEAKTFTRCGLVHELRKHGFEENLMRNWVCLVEHESSRDTSKTNTNRNGSKDYGLFQINDRYWCSKGASPGKDCNVKCSDLLTDDITKAAKCAKKIYKRHRFDAWYGWKNHCQGSLPDISSC
As usually defined, the Tm is the temperature at the midpoint of the melting transition. B1: the Tm runs as follows: (pH 3, glycine-HCl 50 mM) 45.2 °C; (pH 3.25, glycine-HCl 50 mM) 51 °C; under setting [1], 56 °C; under setting [2], 59.3 °C; under setting [3], 62.8 °C; under setting [4], 65.3 °C. Besides, the “unfolding enthalpy (calorimetric)” value stood at 77.6 kcal/mol (pH 3, glycine-HCl 50 mM); 81.5 kcal/mol (pH 3.25, glycine-HCl 50 mM); 88.5 kcal/mol under setting [1]; 91.9 kcal/mol under setting [2]; 94.1 kcal/mol under setting [3]; 99.7 kcal/mol under setting [4]. The “unfolding enthalpy (van 't Hoff)” value came out at 80.9 kcal/mol (pH 3, glycine-HCl 50 mM); 86.7 kcal/mol (pH 3.25, glycine-HCl 50 mM); 91.4 kcal/mol under setting [1]; 92.4 kcal/mol under setting [2]; 93.8 kcal/mol under setting [3]; 95.1 kcal/mol under setting [4]. The denaturant m value under setting [5] turned out to be 3.4 kcal/mol/M. The “denaturant midpoint (higher = more stable)” value under setting [5] was determined as 2.39 M. The unfolding free energy under setting [5] worked out at 8.1 kcal/mol.

These data come from FireProtDB.
